# In paper PMC6745501, “Plant photoreceptors and their signaling components compete for COP1 binding via VP peptide motifs” (The EMBO Journal, 2019):
# Positions count from the first letter of the chain named.
# B1: UVR8^406–413 VP peptide (peptide, UniProt Q9FN03 406-413, looked up)
# peptide: RYAVVPDE
# notes: also called UVR8 VP peptide; UVR8 peptide; source: synthetic peptide (Peptide Specialty Labs GmbH)
# B2: CRY1^544–552 VP peptide (peptide, UniProt Q43125 544-552, looked up)
# peptide: EDQMVPSIT
# notes: cryptochrome 1 (CRY1), Arabidopsis blue-light photoreceptor, residues 544-552 (holds Asp545); also called CRY1 VP peptide; CRY1 peptide; source: synthetic peptide (Peptide Specialty Labs GmbH)
# B3: CO^366–373 VP peptide (peptide, UniProt Q39057 366-373, looked up)
# peptide: GYGIVPSF
# notes: CONSTANS (CO/BBX1) transcription factor, residues 366-373; also called CO VP peptide; CONSTANS; source: synthetic peptide (Peptide Specialty Labs GmbH)
# B4: CRY2^527–535 VP peptide (peptide, UniProt Q96524 527-535, looked up)
# peptide: NDQQVPSAV
# notes: also called CRY2 VP peptide; source: synthetic peptide (Peptide Specialty Labs GmbH)
# B5: full‐length HY5 protein (recombinant) (natural protein, Arabidopsis, UniProt O24646 1-168, looked up)
# chain: MQEQATSSLAASSLPSSSERSSSSAPHLEIKEGIESDEEIRRVPEFGGEAVGKETSGRESGSATGQERTQATVGESQRKRGRTPAEKENKRLKRLLRNRVSAQQARERKKAYLSELENRVKDLENKNSELEERLSTLQNENQMLRHILKNTTGNKRGGGGGSNADASL
# notes: ELONGATED HYPOCOTYL 5 (HY5) bZIP transcription factor, full length; not shown: His10, N-terminal, cleaved; Twin-Strep, N-terminal, cleaved
# B6: UVR8^HY5VP chimera (recombinant) (other)
# chain: MAEDMAADEVTAPPRKVLIISAGASHSVALLSGDIVCSWGRGEDGQLGHGDAEDRPSPTQLSALDGHQIVSVTCGADHTVAYSQSGMEVYSWGWGDFGRLGHGNSSDLFTPLPIKALHGIRIKQIACGDSHCLAVTMEGEVQSWGRNQNGQLGLGDTEDSLVPQKIQAFEGIRIKMVAAGAEHTAAVTEDGDLYGWGWGRYGNLGLGDRTDRLVPERVTSTGGEKMSMVACGWRHTISVSYSGALYTYGWSKYGQLGHGDLEDHLIPHKLEALSNSFISQISGGWRHTMALTSDGKLYGWGWNKFGQVGVGNNLDQCSPVQVRFPDDQKVVQVSCGWRHTLAVTERNNVFAWGRGTNGQLGIGESVDRNFPKIIEALSVDGASGQHIESSNIDPSSGKSWVSPAEEIRRVPEFTGLTDGSSKGNGGDISVPQTDVKRVRI
# B7: UVR8^TRIB1VP chimera (recombinant) (other)
# chain: MAEDMAADEVTAPPRKVLIISAGASHSVALLSGDIVCSWGRGEDGQLGHGDAEDRPSPTQLSALDGHQIVSVTCGADHTVAYSQSGMEVYSWGWGDFGRLGHGNSSDLFTPLPIKALHGIRIKQIACGDSHCLAVTMEGEVQSWGRNQNGQLGLGDTEDSLVPQKIQAFEGIRIKMVAAGAEHTAAVTEDGDLYGWGWGRYGNLGLGDRTDRLVPERVTSTGGEKMSMVACGWRHTISVSYSGALYTYGWSKYGQLGHGDLEDHLIPHKLEALSNSFISQISGGWRHTMALTSDGKLYGWGWNKFGQVGVGNNLDQCSPVQVRFPDDQKVVQVSCGWRHTLAVTERNNVFAWGRGTNGQLGIGESVDRNFPKIIEALSVDGASGQHIESSNIDPSSGKSWVSPAESDQIVPEY
# B8: HYH^27–34 VP peptide (peptide, UniProt Q8W191 27-34, looked up)
# peptide: ELLMVPDM
# notes: HYH (HY5 homolog) transcription factor, residues 27-34; also called HYH peptide; source: synthetic peptide (Peptide Specialty Labs GmbH)
# B9: HFR1^57–64 VP peptide (peptide, UniProt Q9FE22 57-64, looked up)
# peptide: YLQIVPEI
# notes: LONG HYPOCOTYL IN FAR-RED 1 (HFR1) transcription factor, residues 57-64; also called HFR1 peptide; LONG HYPOCOTYL IN FAR‐RED 1; source: synthetic peptide (Peptide Specialty Labs GmbH)
# B10: STO^240–247 VP peptide (peptide, UniProt Q96288 240-247, looked up)
# peptide: EHFIVPDL
# notes: SALT TOLERANCE (STO/BBX24) transcription factor, residues 240-247; also called STO peptide; SALT TOLERANCE (STO/BBX24); source: synthetic peptide (Peptide Specialty Labs GmbH)
# B11: full‐length CRY2 (recombinant) (receptor, Arabidopsis, UniProt Q96524 1-612, looked up)
# chain: MKMDKKTIVWFRRDLRIEDNPALAAAAHEGSVFPVFIWCPEEEGQFYPGRASRWWMKQSLAHLSQSLKALGSDLTLIKTHNTISAILDCIRVTGATKVVFNHLYDPVSLVRDHTVKEKLVERGISVQSYNGDLLYEPWEIYCEKGKPFTSFNSYWKKCLDMSIESVMLPPPWRLMPITAAAEAIWACSIEELGLENEAEKPSNALLTRAWSPGWSNADKLLNEFIEKQLIDYAKNSKKVVGNSTSLLSPYLHFGEISVRHVFQCARMKQIIWARDKNSEGEESADLFLRGIGLREYSRYICFNFPFTHEQSLLSHLRFFPWDADVDKFKAWRQGRTGYPLVDAGMRELWATGWMHNRIRVIVSSFAVKFLLLPWKWGMKYFWDTLLDADLECDILGWQYISGSIPDGHELDRLDNPALQGAKYDPEGEYIRQWLPELARLPTEWIHHPWDAPLTVLKASGVELGTNYAKPIVDIDTARELLAKAISRTREAQIMIGAAPDEIVADSFEALGANTIKEPGLCPSVSSNDQQVPSAVRYNGSKRVKPEEEEERDMKKSRGFDERELFSTAESSSSSSVFFVSQSCSLASEGKNLEGIQDSSDQITTSLGKNGCK
# notes: cryptochrome 2 (CRY2), Arabidopsis blue-light photoreceptor, full length; not shown: His10, N-terminal, cleaved; Twin-Strep, N-terminal, cleaved
# B12: CRY2^NC80 (CRY2^486–565) (domain or fragment, Arabidopsis, UniProt Q96524 486-565, looked up)
# chain: SRTREAQIMIGAAPDEIVADSFEALGANTIKEPGLCPSVSSNDQQVPSAVRYNGSKRVKPEEEEERDMKKSRGFDERELF
# notes: cryptochrome 2 (CRY2), Arabidopsis, fragment of the C-terminus containing the VP motif (NC80 domain), residues 486-565; also called NC80 domain; not shown: His10, N-terminal, cleaved; Twin-Strep, N-terminal, cleaved
# B13: COL3^287–294 VP peptide (peptide, UniProt Q9SK53 287-294, looked up)
# peptide: GFGVVPSF
# notes: COL3/BBX4 transcription factor, residues 287-294 (holds Phe288); also called COL3 VP peptide; COL3 peptide; source: synthetic peptide (Peptide Specialty Labs GmbH)
# Key:
# [1] = target: T1, Arabidopsis COP1^349–675 WD40 domain (Arabidopsis, UniProt P43254 349-675); assay: ITC; VP peptide (titrant, 500-3,000 μM) injected into COP1 WD40 in the cell at about 10-fold lower concentration; 150 mM NaCl, 20 mM HEPES 7.4, 2 mM BME; 25°C; one-site binding model; conditions: both partners purified
# T1 construct: COP1 (CONSTITUTIVELY PHOTOMORPHOGENIC 1) E3 ubiquitin ligase, Arabidopsis, WD40 domain, residues 349-675; also called COP1 WD40 domain; COP1 WD40; not shown: His10, N-terminal, cleaved; Twin-Strep, N-terminal, cleaved
# T1 sequence (looked up): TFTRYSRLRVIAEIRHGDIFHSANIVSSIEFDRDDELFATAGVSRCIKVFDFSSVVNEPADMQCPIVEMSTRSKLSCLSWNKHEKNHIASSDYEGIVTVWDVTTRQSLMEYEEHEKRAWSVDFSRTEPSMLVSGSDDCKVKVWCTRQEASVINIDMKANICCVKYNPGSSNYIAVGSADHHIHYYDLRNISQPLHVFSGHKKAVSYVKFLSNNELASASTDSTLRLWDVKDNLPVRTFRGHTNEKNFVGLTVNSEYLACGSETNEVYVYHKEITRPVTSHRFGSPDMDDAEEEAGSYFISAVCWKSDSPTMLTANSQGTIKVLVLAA
# [2] = target: T2, COP1^349–675,Lys422Ala WD40 domain (Arabidopsis, UniProt P43254 349-675, Lys422Ala); assay: as above; conditions: both partners purified
# T2 construct: COP1, Arabidopsis, WD40 domain, residues 349-675, Lys422Ala; also called COP1^Lys422Ala; not shown: His10, N-terminal, cleaved; Twin-Strep, N-terminal, cleaved
# T2 sequence (looked up): T1 sequence (looked up) with K74A
# [3] = target: T1, Arabidopsis COP1^349–675 WD40 domain; assay: grating-coupled interferometry (GCI); COP1 WD40 amine-coupled to the chip (2,000 pg/mm^2); analyte in 1:3 dilution series from 2 μM (UVR8 forms pre-monomerized by UV-B; HY5); 150 mM NaCl, 20 mM HEPES 7.4, 2 mM BME; 25°C; 1:1 binding model; conditions: both partners purified
# [4] = target: the molecule itself; assay: SEC; purified recombinant chimeric UVR8 proteins alone, in the absence of UV-B
# [5] = target: T1, Arabidopsis COP1^349–675 WD40 domain; assay: crystal structure; co-crystals, 5 mg/ml COP1 with 3- to 10-fold molar excess of peptide; 1.25 M sodium malonate pH 7.5; 20°C; conditions: both partners purified
# [6] = target: T1, Arabidopsis COP1^349–675 WD40 domain; assay: grating-coupled interferometry (GCI); COP1 WD40 amine-coupled (2,000 pg/mm^2), surface passivated with BSA; analyte full-length CRY2 activated by light (highest 14 μM) or CRY2^NC80 (highest 450 μM); 150 mM NaCl, 20 mM HEPES 7.4, 2 mM BME; 25°C; heterogenous ligand model; conditions: both partners purified
binder,measurement,setting,value
B1,binding result,[1],binds
same,fold increase in binding affinity against wild type COP1,[2],~10 fold
same,stoichiometry N,[2],0.87
B2,stoichiometry N,[1],0.99
same,stoichiometry N,[2],0.98
B3,stoichiometry N,[1],1.03
same,fold stronger binding than to wild type COP1,[2],~4 fold
same,stoichiometry N,[2],0.89
B4,stoichiometry N,[1],1.04
same,fold reduction of binding against wild type COP1,[2],~30 fold
B5,Kd,[3],~1000 nM
B6,stoichiometry N,[4],2
B7,stoichiometry N,[4],2
B8,binding result,[5],binds
B9,binding result,[5],binds
B10,binding result,[5],binds
B11,fold increase in binding affinity over the isolated CRY2 VP peptide,[6],~200 fold
B12,binding result,[6],binds
B13,stoichiometry N,[1],0.75
same,stoichiometry N,[2],0.9
